# Assay results from publication PMC11032339.
# Experiments:
# [1] = molecular target: soluble full-length recombinant ADAMTS13 (UniProt Q76LX8)
# [2] = molecular target: soluble full-length recombinant ADAMTS13 (UniProt Q76LX8); test: SPR; Biacore T200; ADAMTS13, MDTCS (or fibrinogen) immobilised on CM5 by amine coupling (500-1000 RU); analytes 0-7 µM (or 0-3.5 µM) with 5 mM AEBSF and 10 µM VFKck; 20 mM HEPES-NaOH, 150 mM NaCl, pH 7.4, 0.01% Tween-20, 10 mM CaCl2, 10 µM ZnCl2; 20 µl/min, 25 °C; equilibrium responses fitted to a one-site binding model
# fibrinogen = test: as above
# Chain of UniProt Q76LX8 (Q76LX8 75-1427): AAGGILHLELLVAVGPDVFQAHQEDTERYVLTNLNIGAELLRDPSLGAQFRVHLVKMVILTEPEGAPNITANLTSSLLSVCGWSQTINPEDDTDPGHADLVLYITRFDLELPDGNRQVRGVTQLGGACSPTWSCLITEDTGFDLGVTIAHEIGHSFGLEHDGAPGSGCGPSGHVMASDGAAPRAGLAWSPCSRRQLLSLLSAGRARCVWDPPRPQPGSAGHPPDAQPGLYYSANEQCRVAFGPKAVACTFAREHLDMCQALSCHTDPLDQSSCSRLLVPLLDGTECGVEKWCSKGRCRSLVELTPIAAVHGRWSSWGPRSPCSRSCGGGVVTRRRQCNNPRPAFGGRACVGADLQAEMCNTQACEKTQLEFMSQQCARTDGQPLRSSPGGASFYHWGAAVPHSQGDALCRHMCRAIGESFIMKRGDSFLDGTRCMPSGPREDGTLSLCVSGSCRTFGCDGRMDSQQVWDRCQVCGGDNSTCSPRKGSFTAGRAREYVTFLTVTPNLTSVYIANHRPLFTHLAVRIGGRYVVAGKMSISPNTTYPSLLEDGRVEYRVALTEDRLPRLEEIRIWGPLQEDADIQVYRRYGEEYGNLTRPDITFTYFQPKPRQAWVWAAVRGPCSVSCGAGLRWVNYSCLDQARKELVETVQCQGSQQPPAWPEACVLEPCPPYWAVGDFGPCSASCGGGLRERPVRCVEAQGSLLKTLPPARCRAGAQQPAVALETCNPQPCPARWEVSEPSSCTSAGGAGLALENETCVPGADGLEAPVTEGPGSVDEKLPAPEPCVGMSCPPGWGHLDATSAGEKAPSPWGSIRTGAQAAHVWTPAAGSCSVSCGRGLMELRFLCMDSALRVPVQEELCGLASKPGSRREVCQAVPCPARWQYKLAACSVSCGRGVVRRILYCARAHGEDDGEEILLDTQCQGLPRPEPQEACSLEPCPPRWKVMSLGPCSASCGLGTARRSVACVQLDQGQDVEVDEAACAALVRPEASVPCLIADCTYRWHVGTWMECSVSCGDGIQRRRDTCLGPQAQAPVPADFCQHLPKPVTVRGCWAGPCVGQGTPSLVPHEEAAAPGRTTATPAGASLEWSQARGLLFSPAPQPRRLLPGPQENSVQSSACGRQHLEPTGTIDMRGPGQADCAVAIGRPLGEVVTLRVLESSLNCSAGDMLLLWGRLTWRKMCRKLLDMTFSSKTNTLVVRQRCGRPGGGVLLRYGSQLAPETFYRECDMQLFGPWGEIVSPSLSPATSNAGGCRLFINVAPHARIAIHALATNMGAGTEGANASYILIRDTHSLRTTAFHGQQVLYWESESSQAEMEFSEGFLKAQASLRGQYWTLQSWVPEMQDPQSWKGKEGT
Substance,"rate of degradation of 100 nM ADAMTS13 by 10 nM active plasmin (Prolytix, not VFK-blocked) at 37 °C in the presence of 5 mM TXA; Western blot densitometry of the intact ADAMTS13 band [1] [nM/min]","rate of degradation of 100 nM ADAMTS13 by 10 nM active plasmin (Prolytix, not VFK-blocked) at 37 °C without TXA; Western blot densitometry of the intact ADAMTS13 band [1] [nM/min]",Kd [2] [nM],Kd (fibrinogen) [nM]
Glu-plasminogen (natural protein),–,–,2800,–
Lys-plasminogen (natural protein),–,–,1000,–
17-kringle form of apolipoprotein(a) (natural protein),–,–,4000,2400

# The remaining lines, values ahead:
"rate of degradation of 100 nM ADAMTS13 by 10 nM active plasmin (Prolytix, not VFK-blocked) at 37 °C in the presence of 5 mM TXA; Western blot densitometry of the intact ADAMTS13 band [1] [nM/min]","rate of degradation of 100 nM ADAMTS13 by 10 nM active plasmin (Prolytix, not VFK-blocked) at 37 °C without TXA; Western blot densitometry of the intact ADAMTS13 band [1] [nM/min]",Kd [2] [nM],Kd (fibrinogen) [nM],Substance
0.05,1.6,1800,–,VFK-plasmin (enzyme)
–,–,1500,–,Mini-plasminogen (domain or fragment)
